{
  "source": "patent US20170240628A1",
  "about": "(CELLMID, published 2017)",
  "binders": {"B1": {"name": "IP14-H2L1 (antibody, V domains shown)", "VH": "QVQLVQSGAEVKKPGASVKVSCKASGQSFSSYWMNWVRQAPGQGLEWIGMIHPSDSETILNQKFKDKATLTVDISTSTAYMELSSLRSEDTAVYYCSSWSAKRGDFWGQGTLVTVSS", "VL": "EIVLTQSPATLSLSPGERANLSCRASESISNNLHWYQQKPHQAPRLLIKYASQSISGIPARFSGSGPGTDFNLTISSVEPEDFAVYYCQQSNSWPLTFGGGTKLEIKR", "notes": "also called Hv2 Lv1"}, "B2": {"name": "IP14-H2L3 (antibody, V domains shown)", "VH": "B1 VH", "VL": "B1 VL with E1D, N20T, H41G, K49Y, N72T, V78L", "notes": "also called hIP14-H2L3; Hv2 Lv3"}, "B3": {"name": "IP14-H2L7 (antibody, V domains shown)", "VH": "B1 VH", "VL": "B1 VL with E1D, K49Y, I58V, P67S, G100Q, L104V", "notes": "also called Hv2 Lv7"}, "B4": {"name": "IP14-H2L8 (antibody, V domains shown)", "VH": "B1 VH", "VL": "B1 VL with E1D, N20T, K49Y, I58V, P67S, N72T, G100Q, L104V", "notes": "also called hIP14-H2L8; Hv2 Lv8"}, "B5": {"name": "IP14-H3L1 (antibody, V domains shown)", "VH": "B1 VH with I48M, A68V, L70M, V72R, I74T, A79V, S97A, S98R", "VL": "B1 VL", "notes": "also called Hv3 Lv1"}, "B6": {"name": "IP14-H3L2 (antibody, V domains shown)", "VH": "B1 VH with I48M, A68V, L70M, V72R, I74T, A79V, S97A, S98R", "VL": "B1 VL with N20T, H41G, N72T", "notes": "also called Hv3 Lv2"}, "B7": {"name": "IP14-H2L6 (antibody, V domains shown)", "VH": "B1 VH", "VL": "EIVLTQSPSTLSASVGDRVNITCRASESISNNLHWYQQKPHKAPKLLIYYASQSISGVPSRFSGSGSGTEFNLTISSVQPDDFATYYCQQSNSWPLTFGQGTKVEIKR", "notes": "also called Hv2 Lv6"}, "B8": {"name": "IP14-H1L6 (antibody, V domains shown)", "VH": "B1 VH with A16H, L86P", "VL": "B7 VL", "notes": "also called Hv1 Lv6"}, "B9": {"name": "IP14-H2L4 (antibody, V domains shown)", "VH": "B1 VH", "VL": "EIVLTQSPDFQSVTPKEKVNITCRASESISNNLHWYQQKPHQSPKLLIYYASQSISGVPSRFSGSGSGTDFNLTINSVEAEDAATYYCQQSNSWPLTFGGGTKLEIKR", "notes": "also called Hv2 Lv4"}, "B10": {"name": "IP14-H1L4 (antibody, V domains shown)", "VH": "B1 VH with A16H, L86P", "VL": "B9 VL", "notes": "also called Hv1 Lv4"}, "B11": {"name": "IP14-H5L4 (antibody, V domains shown)", "VH": "QVQLVQSGGGLVQPGGSLRLSCAASGQSFSSYWMNWVRQAPGQGLEWIGMIHPSDSETILNQKFKDKATLTVDISKNTAYLQMNSLRAEDTAVYYCSSWSAKRGDFWGQGTLVTVSS", "VL": "B9 VL", "notes": "also called Hv5 Lv4"}, "B12": {"name": "IP14-H6L4 (antibody, V domains shown)", "VH": "B11 VH with Q13K, G16H, Q43K, T71S, S75A, T78S", "VL": "B9 VL", "notes": "also called Hv6 Lv4"}, "B13": {"name": "IP14-H5L6 (antibody, V domains shown)", "VH": "B11 VH", "VL": "B7 VL", "notes": "also called Hv5 Lv6"}, "B14": {"name": "IP14-H6L6 (antibody, V domains shown)", "VH": "B11 VH with Q13K, G16H, Q43K, T71S, S75A, T78S", "VL": "B7 VL", "notes": "also called Hv6 Lv6"}},
  "key": {"[1]": {"biological_target": "T1, recombinant murine midkine (muMK) (murine, UniProt P12025 23-140)", "T1 construct": "also called murine MK; Murine MK", "T1 sequence (looked up)": "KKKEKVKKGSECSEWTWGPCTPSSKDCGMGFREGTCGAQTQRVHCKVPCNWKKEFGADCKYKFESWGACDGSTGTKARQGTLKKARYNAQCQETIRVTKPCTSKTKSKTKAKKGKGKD", "assay": "ELISA, plate coated with muMK", "description": "(§1) The binding specificity and affinity of the humanised anti-MK antibodies to recombinant human MK (huMK) and murine MK (muMK) was assessed by ELISA. ELISA plates (Nunc Immuno MaxiSorp 96 well flat-bottom were coated with 100 uL of 2 ug/mL of either huMK or muMK in 2% BSA/PBS (overnight at room temperature). After washing, blocking (1 h at 37° C.), and washing again, the humanised anti-MK and chimeric antibodies described in Example 1 were analysed for binding to huMK or muMK at concentrations ranging between 3 μg/ml and 0.00004 μg/ml in 2% BSA/PBS (1 h at 37° C.). After washing, the binding of antibody was detected with goat anti-mouse IgG (Fab specific)-HRP conjugate (Sigma, Cat. No. A9917) and SigmaFast OPD substrate (Sigma, Cat. No. P9187). The reaction was stopped with 3 M HCl, absorbance read at 490 nm on a Dynex Technologies MRX TC II plate reader and the binding curves plotted. Binding affinity data for the humanised anti-MK antibodies to huMK and muMK are presented in Table 6 and Table 7 respectively, and in FIG. 3."}, "[2]": {"biological_target": "T2, recombinant human midkine (huMK) (human, UniProt P21741 21-143)", "T2 construct": "also called human MK; Human MK", "T2 sequence (looked up)": "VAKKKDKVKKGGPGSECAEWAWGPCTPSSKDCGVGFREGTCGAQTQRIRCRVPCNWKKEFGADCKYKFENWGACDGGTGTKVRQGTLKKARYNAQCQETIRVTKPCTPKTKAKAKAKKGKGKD", "assay": "ELISA, plate coated with huMK", "description": "as §1"}},
  "note": "Changes are numbered by the printed parent chain.",
  "data": [
    {"binder": "B1", "values": [
      {"measurement": "EC50", "setting": "[1]", "value": 0.09, "unit": "nM"},
      {"measurement": "EC50", "setting": "[2]", "value": 0.093, "unit": "nM"}
    ]},
    {"binder": "B2", "values": [
      {"measurement": "EC50", "setting": "[1]", "value": 0.081, "unit": "nM"},
      {"measurement": "EC50", "setting": "[2]", "value": 0.068, "unit": "nM"}
    ]},
    {"binder": "B3", "values": [
      {"measurement": "EC50", "setting": "[1]", "value": 0.071, "unit": "nM"},
      {"measurement": "EC50", "setting": "[2]", "value": 0.058, "unit": "nM"}
    ]},
    {"binder": "B4", "values": [
      {"measurement": "EC50", "setting": "[1]", "value": 0.069, "unit": "nM"},
      {"measurement": "EC50", "setting": "[2]", "value": 0.056, "unit": "nM"}
    ]},
    {"binder": "B5", "values": [
      {"measurement": "EC50", "setting": "[1]", "value": 0.12, "unit": "nM"},
      {"measurement": "EC50", "setting": "[2]", "value": 0.091, "unit": "nM"}
    ]},
    {"binder": "B6", "values": [
      {"measurement": "EC50", "setting": "[1]", "value": 0.1, "unit": "nM"},
      {"measurement": "EC50", "setting": "[2]", "value": 0.082, "unit": "nM"}
    ]},
    {"binder": "B7", "values": [
      {"measurement": "EC50", "setting": "[1]", "value": 0.073, "unit": "nM"},
      {"measurement": "EC50", "setting": "[2]", "value": 0.054, "unit": "nM"}
    ]},
    {"binder": "B8", "values": [
      {"measurement": "EC50", "setting": "[1]", "value": 0.087, "unit": "nM"},
      {"measurement": "EC50", "setting": "[2]", "value": 0.053, "unit": "nM"}
    ]},
    {"binder": "B9", "values": [
      {"measurement": "EC50", "setting": "[1]", "value": 0.078, "unit": "nM"},
      {"measurement": "EC50", "setting": "[2]", "value": 0.053, "unit": "nM"}
    ]},
    {"binder": "B10", "values": [
      {"measurement": "EC50", "setting": "[1]", "value": 0.081, "unit": "nM"},
      {"measurement": "EC50", "setting": "[2]", "value": 0.05, "unit": "nM"}
    ]},
    {"binder": "B11", "values": [
      {"measurement": "EC50", "setting": "[1]", "value": 0.051, "unit": "nM"},
      {"measurement": "EC50", "setting": "[2]", "value": 0.069, "unit": "nM"}
    ]},
    {"binder": "B12", "values": [
      {"measurement": "EC50", "setting": "[1]", "value": 0.051, "unit": "nM"},
      {"measurement": "EC50", "setting": "[2]", "value": 0.073, "unit": "nM"}
    ]},
    {"binder": "B13", "values": [
      {"measurement": "EC50", "setting": "[1]", "value": 0.044, "unit": "nM"},
      {"measurement": "EC50", "setting": "[2]", "value": 0.073, "unit": "nM"}
    ]},
    {"binder": "B14", "values": [
      {"measurement": "EC50", "setting": "[1]", "value": 0.048, "unit": "nM"},
      {"measurement": "EC50", "setting": "[2]", "value": 0.088, "unit": "nM"}
    ]}
  ]
}
